The target of experiment [1] is polyclonal human IgG (Gammanorm, Octapharma) (human). Put plainly: gradient elution pH 6 to pH 3 (0.1 M citrate) from a column of immobilised ligand, pH at peak apex.
Experiment [2] has the same target. Put plainly: breakthrough on a column of immobilised ligand, 1 mg/ml IgG, pH 7.4, residence time 2.4 min, ligand density 9.6 mg/ml.
For experiment [3] the target is unchanged. Put plainly: gradient elution pH 6 to pH 3 from a column of immobilised ligand; polyclonal IgG (Gammanorm) shows the biggest difference.

Where only a bound is given, the exact number is not on record here.

Consider one substance from US20130338339A1.

In experiment [1], “Mutant Z(H18S)4: ligand tetramer containing four copies of protein Z, each containing the H18S substitution (designed binder)” showed an elution pH, hIgG (first peak) of 5.11 pH and an elution pH, hIgG (second peak) of 4.61 pH. In experiment [2], this substance returned a Qb10% (dynamic binding capacity at 10% breakthrough) of 36.4 mg/ml resin and a Qb80% (dynamic binding capacity at 80% breakthrough) of 65 mg/ml resin. For the same substance, the increase in elution pH compared to Z4 in experiment [3] is > 1 >pH unit.
